Data set [1] addresses ccDnaB-His (wild type) (Caulobacter crescentus). The experiment in a line: SEC; ccDnaB-His alone on Superdex 200; 25 mM Tris-HCl pH 7.5, 300 mM NaCl, 20% glycerol, 0.1 mM ATP, 5 mM MgCl2; fractions by SDS-PAGE; hexamer. (In general: In gel filtration, larger molecules generally elute earlier.)
The target of another data set is ccDnaB-His (wild type). The experiment in a line: pull-down (Ni-conjugated magnetic beads), quantified from SDS-14% PAGE with Coomassie staining. The following applies: sfTq2-DciA 850 nM, three independent reactions per legend, parent: est. 1.4, read off a plot.
In data set [2] the target is T1, His-DciA R106A (UniProt A0A0H3C5R2 1-179, R106A). Kind of data set: EMSA; 50 mM K-glutamate; EMSA: 20 mM Tris-HCl pH 7.5, 10 mM Mg acetate, 50 or 150 mM K-glutamate, 0.1 mg/ml BSA, 10% glycerol, 2 mM ATP, 12.5 nM DNA, 5 min on ice; M13 pull-down: Tris pH 7.5, 10 mM Mg acetate, 50 mM K-glutamate, 0.1 mM ATP, 0.1 mg/ml BSA, 30 C. The following applies: protein: recombinant; tags: N-terminal His6; label: 5'-FAM. Background: A gel shift assay detects complexes by their altered migration in electrophoresis.

Data set [3] deals with T2, His-DciA WT (UniProt A0A0H3C5R2 1-179). The description is as above. Particulars: protein: recombinant; tags: N-terminal His6; label: 5'-FAM.
Data set [4] concerns the target T1, His-DciA R106A. The experiment in a line: EMSA; 150 mM K-glutamate; EMSA: 20 mM Tris-HCl pH 7.5, 10 mM Mg acetate, 50 or 150 mM K-glutamate, 0.1 mg/ml BSA, 10% glycerol, 2 mM ATP, 12.5 nM DNA, 5 min on ice; M13 pull-down: Tris pH 7.5, 10 mM Mg acetate, 50 mM K-glutamate, 0.1 mM ATP, 0.1 mg/ml BSA, 30 C. The following applies: protein: recombinant; tags: N-terminal His6; label: 5'-FAM.

In data set [5] the target is His-DciA R106A L119S (RL) (UniProt A0A0H3C5R2 1-179, R106A;L119S). Described as above. The following applies: protein: recombinant; tags: N-terminal His6; label: 5'-FAM.
The target of a further data set is His-DciA 4A2S (UniProt A0A0H3C5R2 1-179, H98A;Q99A;Q102A;R106A;M109S;L110S). The description is as above. The following applies: protein: recombinant; tags: N-terminal His6; label: 5'-FAM.
In data set [6] the target is T2, His-DciA WT. Described as above. Particulars: protein: recombinant; tags: N-terminal His6; label: 5'-FAM.
The target of another data set is His-DciA L119S (UniProt A0A0H3C5R2 1-179, L119S). Described as above. The following applies: protein: recombinant; tags: N-terminal His6; label: 5'-FAM.
The target in the next data set is His-DciA 4A (UniProt A0A0H3C5R2 1-179, H98A;Q99A;Q102A;R106A). Described as above. Particulars: protein: recombinant; tags: N-terminal His6; label: 5'-FAM.
Another data set addresses His-DciA del1-45 (UniProt A0A0H3C5R2 46-179, del1-45). The data set is described as above. Particulars: protein: recombinant; tags: N-terminal His6; label: 5'-FAM.

Consider 4 molecules from article PMC12547741, “DUF-721 and N-terminal extension of the helicase loader DciA bind ssDNA to promote replicative DnaB helicase loading in Caulobacter crescentus”.

T1 sequence (A0A0H3C5R2 entry or part of it R106A | R106A R106A): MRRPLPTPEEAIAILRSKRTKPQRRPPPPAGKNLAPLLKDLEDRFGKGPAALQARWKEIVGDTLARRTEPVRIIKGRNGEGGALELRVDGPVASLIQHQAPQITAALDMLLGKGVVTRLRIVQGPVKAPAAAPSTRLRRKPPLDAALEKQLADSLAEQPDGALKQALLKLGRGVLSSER
T2 sequence (A0A0H3C5R2 entry or part of it): as the sequence (A0A0H3C5R2 entry or part of it R106A | R106A R106A) above, with A106R counted along it
Sequence of His-DciA del1-45 (A0A0H3C5R2 entry or part of it del1-45): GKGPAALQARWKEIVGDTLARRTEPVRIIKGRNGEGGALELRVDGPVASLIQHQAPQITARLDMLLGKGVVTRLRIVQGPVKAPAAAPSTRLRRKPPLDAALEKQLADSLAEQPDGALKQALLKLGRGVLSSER
Sequence of His-DciA R106A L119S (RL) (A0A0H3C5R2 entry or part of it R106A;L119S | R106A L119S R106A L119S): as the sequence (A0A0H3C5R2 entry or part of it R106A | R106A R106A) above, with L119S counted along it
Sequence of His-DciA 4A (A0A0H3C5R2 entry or part of it H98A;Q99A;Q102A;R106A): as the sequence (A0A0H3C5R2 entry or part of it R106A | R106A R106A) above, with H98A, Q99A, Q102A counted along it
Sequence of His-DciA 4A2S (A0A0H3C5R2 entry or part of it H98A;Q99A;Q102A;R106A;M109S;L110S): as the sequence (A0A0H3C5R2 entry or part of it R106A | R106A R106A) above, with H98A, Q99A, Q102A, M109S, L110S counted along it
Sequence of His-DciA L119S (A0A0H3C5R2 entry or part of it L119S | L119S L119S): as the sequence (A0A0H3C5R2 entry or part of it R106A | R106A R106A) above, with A106R, L119S counted along it

In the case of ccDnaB-His (wild type) (enzyme), the stoichiometry N (in general, a count of units in the complex or per binding partner) in data set [1] was 6.
Take “superfolder mTurquoise2 fluorescent protein-tagged DciA (sfTq2-DciA), wild type R106A”: the response in the data set with ccDnaB-His (wild type) was 1.2 AU.

B1: 80-mer oligo 1790 (ssDNA)
DNA: TCCTTGTTATCCACAGGGCAGTTTTTTTTTTTTTTTTTTTTTTTTTTTTTTTTTTTTTTTTGTGCGATATAGTTCTCCGA
For B1, the Kd (commonly the free concentration of one partner at which half of the binding sites on the other are occupied at equilibrium, for simple one-to-one binding) with His-DciA R106A [2] amounted to 152 ± 75.4 nM; with His-DciA WT [3] it was 49.7 ± 24.4 nM; in the data set with His-DciA R106A [4], 115 ± 40.3 nM; in [5], 115 ± 40.3 nM; with His-DciA 4A2S, 115 ± 40.3 nM; with His-DciA WT [6], 25.4 ± 8.4 nM. Moreover, the equilibrium dissociation constant (Kd) with His-DciA L119S, with His-DciA 4A and with His-DciA del1-45 was 115 ± 40.3 nM in each case.
TTTTTTTTTTTTTTTTTTTTTTTTTTTTTTTTTTT (ssDNA) [35-mer oligo 2201]: the Kd with His-DciA R106A [2] was found to be 35.7 ± 17.6 nM; in the data set with His-DciA WT [3], 19.6 ± 7.03 nM; with His-DciA R106A [4], 543 ± 9.95 nM; in [5], 665 ± 47.9 nM; with His-DciA WT [6] it was 109 ± 21 nM; with His-DciA del1-45, 520 ± 30.6 nM.
